Assays:
Experiment in all cases: EMSA
[1] = target: T1, MutSwt (Escherichia coli K12, UniProt P23909 1-853)
T1 sequence: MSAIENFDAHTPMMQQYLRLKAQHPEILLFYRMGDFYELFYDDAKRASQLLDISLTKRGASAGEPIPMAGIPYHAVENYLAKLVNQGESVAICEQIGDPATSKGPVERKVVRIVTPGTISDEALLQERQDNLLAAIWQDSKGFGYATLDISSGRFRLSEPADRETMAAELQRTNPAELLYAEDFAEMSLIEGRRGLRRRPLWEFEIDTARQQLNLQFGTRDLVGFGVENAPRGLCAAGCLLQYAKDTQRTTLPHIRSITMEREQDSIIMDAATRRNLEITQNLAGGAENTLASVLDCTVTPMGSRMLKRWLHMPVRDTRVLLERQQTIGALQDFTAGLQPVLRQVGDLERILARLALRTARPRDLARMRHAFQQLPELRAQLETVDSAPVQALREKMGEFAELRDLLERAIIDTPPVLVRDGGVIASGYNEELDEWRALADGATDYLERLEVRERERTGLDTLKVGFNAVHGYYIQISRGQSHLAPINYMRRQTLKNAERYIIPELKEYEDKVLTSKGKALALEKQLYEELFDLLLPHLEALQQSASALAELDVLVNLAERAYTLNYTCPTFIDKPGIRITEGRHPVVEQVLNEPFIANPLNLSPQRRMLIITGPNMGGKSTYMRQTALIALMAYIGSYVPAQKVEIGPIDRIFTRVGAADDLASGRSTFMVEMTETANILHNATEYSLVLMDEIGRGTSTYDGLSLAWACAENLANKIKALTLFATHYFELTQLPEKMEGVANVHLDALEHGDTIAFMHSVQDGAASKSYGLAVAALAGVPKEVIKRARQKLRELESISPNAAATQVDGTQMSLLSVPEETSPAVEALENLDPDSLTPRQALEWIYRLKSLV

[2] = target: T2, MutSCF/D835R (Escherichia coli K12, UniProt P23909 1-853, C93A;C235S;C239A;C297S;C569S;C711V;D835R)
T2 sequence: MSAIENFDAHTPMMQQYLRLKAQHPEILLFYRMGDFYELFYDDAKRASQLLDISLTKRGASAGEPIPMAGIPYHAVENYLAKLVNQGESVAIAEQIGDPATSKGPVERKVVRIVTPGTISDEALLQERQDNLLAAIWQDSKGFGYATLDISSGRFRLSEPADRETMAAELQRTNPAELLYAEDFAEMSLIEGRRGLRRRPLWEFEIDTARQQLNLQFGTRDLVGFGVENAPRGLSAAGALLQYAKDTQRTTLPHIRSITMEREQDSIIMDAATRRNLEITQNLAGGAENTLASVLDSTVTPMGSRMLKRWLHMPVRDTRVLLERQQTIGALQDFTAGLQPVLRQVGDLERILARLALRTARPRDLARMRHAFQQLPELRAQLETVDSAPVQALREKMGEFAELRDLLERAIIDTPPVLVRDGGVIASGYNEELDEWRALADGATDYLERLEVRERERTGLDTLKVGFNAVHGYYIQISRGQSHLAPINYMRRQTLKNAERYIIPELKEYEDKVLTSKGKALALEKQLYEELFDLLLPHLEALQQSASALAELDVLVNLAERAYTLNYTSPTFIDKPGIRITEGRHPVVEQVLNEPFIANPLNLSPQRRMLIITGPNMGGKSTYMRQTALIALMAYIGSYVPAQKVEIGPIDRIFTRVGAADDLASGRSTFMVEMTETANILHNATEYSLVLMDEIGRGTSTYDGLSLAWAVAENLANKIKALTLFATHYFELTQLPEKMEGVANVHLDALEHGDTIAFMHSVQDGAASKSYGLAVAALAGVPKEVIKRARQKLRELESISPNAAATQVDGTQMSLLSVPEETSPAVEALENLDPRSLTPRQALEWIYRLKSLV

[3] = target: T3, MutSCF (cysteine-free MutS) (Escherichia coli K12, UniProt P23909 1-853, C93A;C235S;C239A;C297S;C569S;C711V)
T3 sequence: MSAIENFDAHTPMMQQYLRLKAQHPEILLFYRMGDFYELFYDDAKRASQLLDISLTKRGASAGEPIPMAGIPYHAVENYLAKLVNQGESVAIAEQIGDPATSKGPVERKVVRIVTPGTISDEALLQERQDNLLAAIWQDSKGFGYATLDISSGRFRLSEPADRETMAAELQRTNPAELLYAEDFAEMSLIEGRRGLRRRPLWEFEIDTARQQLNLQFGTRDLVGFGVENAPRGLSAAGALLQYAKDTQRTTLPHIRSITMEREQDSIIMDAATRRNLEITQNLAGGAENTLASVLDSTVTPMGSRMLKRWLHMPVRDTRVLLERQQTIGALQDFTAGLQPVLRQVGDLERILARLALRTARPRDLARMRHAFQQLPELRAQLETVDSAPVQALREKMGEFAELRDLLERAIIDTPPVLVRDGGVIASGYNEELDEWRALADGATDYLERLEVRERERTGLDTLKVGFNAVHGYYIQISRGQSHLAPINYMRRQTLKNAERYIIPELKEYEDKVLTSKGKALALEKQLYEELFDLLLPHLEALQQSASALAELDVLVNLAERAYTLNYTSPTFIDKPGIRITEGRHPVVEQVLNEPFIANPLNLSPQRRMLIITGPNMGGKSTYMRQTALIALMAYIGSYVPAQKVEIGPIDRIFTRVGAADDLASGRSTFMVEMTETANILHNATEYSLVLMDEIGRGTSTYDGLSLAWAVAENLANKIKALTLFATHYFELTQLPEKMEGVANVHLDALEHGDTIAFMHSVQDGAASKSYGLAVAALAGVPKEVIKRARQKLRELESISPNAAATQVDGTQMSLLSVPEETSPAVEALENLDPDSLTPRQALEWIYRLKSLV

B1: 42 bp G/T heteroduplex (dsDNA)
DNA 1: TATTAATTTCGCGGGCTCGAGAGCTTCATCCTCTACGCCGGA
DNA 2: TCCGGCGTAGAGGATGAAGCTTTCGAGCCCGCGAAATTAATA
[1]
  binding result: binds
[2]
  apparent K (half saturation): 45 ± 3 nM
[3]
  apparent K (half saturation): 42 ± 2 nM

From article PMC1636413 (Nucleic Acids Research, 2006)
